Like-named read-outs stand apart in the source and are kept apart here.
B1: full-length SARS coronavirus 3C-like proteinase (enzyme)
chain: SGFRKMAFPSGKVEGCMVQVTCGTTTLNGLWLDDTVYCPRHVICTAEDMLNPNYEDLLIRKSNHSFLVQAGNVQLRVIGHSMQNCLLRLKVDTSNPKTPKYKFVRIQPGQTFSVLACYNGSPSGVYQCAMRPNHTIKGSFLNGSCGSVGFNIDYDCVSFCYMHHMELPTGVHAGTDLEGKFYGPFVDRQTAQAAGTDTTITLNVLAWLYAAVINGDRWFLNRFTTTLNDFNLVAMKYNYEPLTQDHVDILGPLSAQTGIAVLDMCAALKELLQNGMNGRTILGSTILEDEFTPFDVVRQCSGVTFQ
B2: N-terminal deleted SARS 3CL^pro (residues 8-303) (domain or fragment)
chain: FPSGKVEGCMVQVTCGTTTLNGLWLDDTVYCPRHVICTAEDMLNPNYEDLLIRKSNHSFLVQAGNVQLRVIGHSMQNCLLRLKVDTSNPKTPKYKFVRIQPGQTFSVLACYNGSPSGVYQCAMRPNHTIKGSFLNGSCGSVGFNIDYDCVSFCYMHHMELPTGVHAGTDLEGKFYGPFVDRQTAQAAGTDTTITLNVLAWLYAAVINGDRWFLNRFTTTLNDFNLVAMKYNYEPLTQDHVDILGPLSAQTGIAVLDMCAALKELLQNGMNGRTILGSTILEDEFTPFDVVRQCSGVTFQ

Assays:
[1] = biological target: 6-amino acid model peptide substrate ([…]); experiment: SPR
ITC [2] = biological target: the molecule itself; experiment: ITC
ITC [3] = biological target: the molecule itself; experiment: ITC; remark: listed apart in the source
SEC = biological target: the molecule itself; experiment: SEC

Binder	Kd [1] [µM]	Kd (ITC [2]) [µM]	dH (ITC [2]) [kcal/mol]	Kd (ITC [3]) [µM]	dimer/monomer ratio at 1 mg/ml (SEC)	dimer/monomer ratio at 2 mg/ml (SEC)	dimer/monomer ratio at 7 mg/ml (SEC)
B1	~152	227 ± 34	-8.28 ± 0.103	–	–	–	–
B2	–	262 ± 15	-6.89 ± 0.25	261 ± 15	0.65	0.66	0.8
